Results from paper PMC12610408, “An Unbiased Cell‐Culture Selection Yields DNA Aptamers as Novel Senescent Cell‐Specific Reagents”.

Molecular target: fibronectin (native, purified from mouse plasma) (mouse, UniProt P11276 33-2477)
Assay: BLI; BLI: streptavidin biosensors, biotinylated aptamer (500 nM) immobilized, fibronectin analyte, 1x Octet Kinetics Buffer, 30 C, 1:1 fit; pull-down: streptavidin Dynabeads M-270, beads washed in PBS + 5 mM MgCl2
Conditions: protein: native; chain copies: 2; label: 5' 6-FAM; 3' BioTEG

Sequence of fibronectin (native, purified from mouse plasma) (P11276 33-2477): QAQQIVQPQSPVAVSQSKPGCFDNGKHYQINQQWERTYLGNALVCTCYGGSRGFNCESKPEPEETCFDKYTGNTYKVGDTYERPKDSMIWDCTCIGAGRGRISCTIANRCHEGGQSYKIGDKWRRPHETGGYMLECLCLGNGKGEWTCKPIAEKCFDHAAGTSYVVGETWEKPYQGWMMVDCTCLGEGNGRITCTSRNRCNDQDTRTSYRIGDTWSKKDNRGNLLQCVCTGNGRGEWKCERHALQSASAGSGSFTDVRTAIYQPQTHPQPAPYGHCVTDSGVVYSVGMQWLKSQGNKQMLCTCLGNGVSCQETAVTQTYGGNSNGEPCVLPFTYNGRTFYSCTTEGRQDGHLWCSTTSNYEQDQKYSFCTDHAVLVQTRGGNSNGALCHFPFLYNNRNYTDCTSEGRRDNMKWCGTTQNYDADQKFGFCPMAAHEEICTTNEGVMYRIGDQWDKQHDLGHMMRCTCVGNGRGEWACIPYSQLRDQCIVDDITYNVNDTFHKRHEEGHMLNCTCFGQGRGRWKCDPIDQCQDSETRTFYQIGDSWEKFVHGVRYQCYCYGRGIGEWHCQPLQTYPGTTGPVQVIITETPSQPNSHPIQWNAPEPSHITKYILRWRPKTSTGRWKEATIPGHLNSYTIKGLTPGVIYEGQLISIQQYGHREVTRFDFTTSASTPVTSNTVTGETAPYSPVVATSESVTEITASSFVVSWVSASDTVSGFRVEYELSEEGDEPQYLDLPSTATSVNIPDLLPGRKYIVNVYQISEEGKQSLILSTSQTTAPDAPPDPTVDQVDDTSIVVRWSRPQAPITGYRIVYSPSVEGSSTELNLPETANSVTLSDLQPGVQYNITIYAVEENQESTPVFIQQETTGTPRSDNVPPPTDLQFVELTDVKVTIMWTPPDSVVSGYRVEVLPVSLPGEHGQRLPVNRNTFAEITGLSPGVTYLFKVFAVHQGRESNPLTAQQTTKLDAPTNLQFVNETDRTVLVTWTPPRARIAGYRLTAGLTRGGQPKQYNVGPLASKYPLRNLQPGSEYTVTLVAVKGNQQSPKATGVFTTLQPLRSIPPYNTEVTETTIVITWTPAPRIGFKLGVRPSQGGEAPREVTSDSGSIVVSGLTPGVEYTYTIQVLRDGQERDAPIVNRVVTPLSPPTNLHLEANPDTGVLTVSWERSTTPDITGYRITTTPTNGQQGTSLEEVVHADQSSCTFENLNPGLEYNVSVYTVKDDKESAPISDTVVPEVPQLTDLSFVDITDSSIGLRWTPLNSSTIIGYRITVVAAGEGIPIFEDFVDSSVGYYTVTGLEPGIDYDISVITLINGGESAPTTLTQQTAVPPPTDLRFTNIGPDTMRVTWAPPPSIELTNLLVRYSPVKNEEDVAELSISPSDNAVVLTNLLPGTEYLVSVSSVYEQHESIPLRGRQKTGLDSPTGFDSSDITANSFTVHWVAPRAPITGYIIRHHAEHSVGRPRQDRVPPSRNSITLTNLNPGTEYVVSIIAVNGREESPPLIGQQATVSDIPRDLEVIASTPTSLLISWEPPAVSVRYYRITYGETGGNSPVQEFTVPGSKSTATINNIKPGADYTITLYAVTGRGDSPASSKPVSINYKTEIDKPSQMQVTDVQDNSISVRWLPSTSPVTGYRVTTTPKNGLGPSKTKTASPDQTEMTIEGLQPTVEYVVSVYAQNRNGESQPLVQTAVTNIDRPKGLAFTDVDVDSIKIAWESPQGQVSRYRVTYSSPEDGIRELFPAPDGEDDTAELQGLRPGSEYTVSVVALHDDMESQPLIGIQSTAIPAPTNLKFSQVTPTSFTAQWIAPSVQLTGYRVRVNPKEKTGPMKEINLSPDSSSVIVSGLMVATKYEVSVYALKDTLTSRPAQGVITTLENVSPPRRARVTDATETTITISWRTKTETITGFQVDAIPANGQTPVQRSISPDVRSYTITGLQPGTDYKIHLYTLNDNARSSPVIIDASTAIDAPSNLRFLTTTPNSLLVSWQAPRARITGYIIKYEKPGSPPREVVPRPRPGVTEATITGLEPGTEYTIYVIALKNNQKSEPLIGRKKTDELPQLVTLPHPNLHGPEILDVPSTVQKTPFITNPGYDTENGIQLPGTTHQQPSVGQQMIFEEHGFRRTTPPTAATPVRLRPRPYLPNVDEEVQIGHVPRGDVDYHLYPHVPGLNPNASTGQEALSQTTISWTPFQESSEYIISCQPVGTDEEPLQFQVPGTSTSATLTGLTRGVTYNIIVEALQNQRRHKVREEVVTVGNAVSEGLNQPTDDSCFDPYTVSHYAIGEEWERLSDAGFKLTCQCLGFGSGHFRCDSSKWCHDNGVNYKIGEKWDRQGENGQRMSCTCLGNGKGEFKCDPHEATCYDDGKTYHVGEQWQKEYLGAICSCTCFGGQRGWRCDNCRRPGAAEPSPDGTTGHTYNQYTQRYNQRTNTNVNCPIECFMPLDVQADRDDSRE

Row | Binder | Kd | binding result
1 | aptamer 6762 (ssDNA) DNA: TGCGTATTGACACATGCGTGGCTTAATGCAATCCATCTGTTGCATTTTTCTAAACGTCGCCAGGCATAGGTATGGGCTTT | 0.579 nM | –
2 | negative control oligonucleotide 6766 (ssDNA) DNA: TGCGTATTGACACATGCGTGCTTGTTATATAACGTGTCATAGCGTCCAAAAAGAAGTACACAGGCATAGGTATGGGCTTT | – | no binding
3 | aptamer 6756 (ssDNA) DNA: TGCGTATTGACACATGCGTGAAACGGACTTTTATTAGACAAATAATGCATGTCTCGAATTCAGGCATAGGTATGGGCTTT | 0.921 nM | –
